Reference: the DeepSol protein solubility set

Experiment: soluble on expression in E. coli; label from the status in PepcDB or PDB records

Soluble on expression in E. coli, not soluble:
MGSDKIHHHHHHMDGRGLKAYATPIRKFWVVLLQQRRMAMAENEKYLDWAREVLHTEAEGLREIAAELDENFVLAADALLHCKGRVVITGMGKSGHIGRKMAATMASTGTPAFFVHPAEAAHGDLGMIVDNDVVAAISNSGESDEITAIIPALKRKDITLVCITARPDSTMARHADIHITASVSQEACPLGLAPTTSTTAVMALGDALAVVLLRARAFTPDDFALIHPAGSLGKRLLLRVADIMHKGGGLPAVRLGTPLKGAIVSMSEKGLGMLAVTDGQGCLKGVFTDGDLRRLFQECDNFTGLSIDEVMHTHPKTISAERLATEALKVMQANHVNGLLVTDADGVLTGALNMHDLLAARIV
MGSDKIHHHHHHMDIKQLRYFVEVARREHISDAALELNIAQSAISRQITQLEKELGVTLFKRSGRNIILTVEGRQLLSQATQILELMDKTIHSFQQHVSHNQQTIYIGYEESDASQMILPLIQTFEQQSNSTMIPQLTKHDKLLDQILSNQLDLAITEFTPVLERETHLRVMPLFEENYYMYVPKSHPLAMTVHPPLSQFTNQSLYCLEPMTSSIKSKLIEKTKAQVRMISDMKLAQHILSHNKGFIISSQNSLLYDHVNWTKIPLNHTELKRMLCVVMRKDNKKNDINIAWNLICTLLNKSTIY
MGSDKIHHHHHHMDILRKVAEIHGTPTYVYFEETLRKRSRLVKEVFEGVNLLPTFAVKANNNPVLLKILREEGFGMDVVTKGELLAAKLAGVPSHTVVWNGNGKSRDQMEHFLREDVRIVNVDSFEEMEIWRELNPEGVEYFIRVNPEVDAKTHPHISTGLKKHKFGIPLEDLDSFMERFRSMNIRGLHVHIGSQITRVEPFVEAFSKVVRASERYGFEEINIGGGWGINYSGEELDLSSYREKVVPDLKRFKRVIVEIGRYIVAPSGYLLLRVVLVKRRHNKAFVVVDGGMNVLIRPALYSAYHRIFVLGKQGKEMRADVVGPLCESGDVIAYDRELPEVEPGDIIAVENAGAYGYTMSNNYNSTTRPAEVLVRENGRISLIRRRETEMDIFKDVVM
MGSDKIHHHHHHMDILTGKCSDRFMAHVLKRRDQEAVRWYVLTLPTAGGGRDRISPSKGLDAELSRRERRGEALFEYFSPSYVEARKVGGKMVNTRQPLLYNYVFVHASEDEIFRLKRTLPLYNFLPRVSSGGRSYFPYLSDREMDTLRWVAASYSNELPVYVPDSGRLLKGDRVRITSGPFTDMEAEVVVQPGGGHKDVMVRILDCLWVPLFEVRAGEYELIELNTGGKHVYTHLDNDRLSEGLHDALGRYHASGVVVDEDACLAREVLRGYASLRAETDVIRCKLYSLLLPAYLLLGESDEFDRLRSTMRSMLPVIKAGQSRALLLVTLYGCTDSSLYQRMAHELVDPWQEEASPKKSKTVLIRRLRDYDRWLKHNE
MGSDKIHHHHHHMDISIGDDSNGAVISIVGSHLDKLNLNGTAILLERYDDSPTHFGSAFLFPYANRVRNGEFTLDGKRYFLPKDDENNSIHGLVLSKKFDLVEKIENSVTMRYIMADECYPSPIEIFITHTVSEGKYTCRVKASNRGLTRAPVSAGFHPYFLYNGRWAIKKPRDTWKLEYDGQFPTGKMDKFLFEEDSFMHEFDNQFFADEDIVVDMGSHMIQIERENMPFFVIYNGKYSGGKSVAIEPMMSAVDAFNNGIGLRIVNPGESIEFAYSVEIRE
MGSDKIHHHHHHMDIYEKYGLKPVINADGKMTILGVSQVSDQVAAAQKQGAQNFFEMAELTVQTGRYLADLIGSEDALIVNSASAGIAQVLAGIIGRGNAYHVTHPYTTQITQREVIMPLGHDVDYGAPVDVMLAVAGAQPVLAGYANRCTAEQLAMQITPQTVAILYIKSHHTVQKSMLTIADALQVAHDHHLPLVLDAAAEGDLRRYLQLGVDVVIYSGAKAISGPASGLVLGRQTYVEWARQQNYGIGRAMKIGKENILGLVAAVEQYLTTGPESGASMKARLAPFIAELQTLPNVQVEMVQDGAGRDIFRASVRIAEAAKICQALRQGRPAIYPREYRVNEGLIEFDIRALTSAEMTQIVERLRTIIEEESTCN
MGSDKIHHHHHHMDKEEQYLLFALSTPMEVLYIGNEPSHTSPAMYTGIPAVDLSDSWGIDNREDLIQTIYRMTDDGHAADLAPFYIRWFTLSPRQWREFTAQFGEQGQIYARFVAETALCCGRGGIKAWDYVRMGFLCRMGVLNQWLTEEESLWLQSRIYARAYYFYDGWTQYFAAYSLGRLYWQAKGDTIQAYFAHLKYDASGARMFNELASTTESYYAQLPWRPLNEQPTCPETLKGVSDL
MGSDKIHHHHHHMDKNPLVYEYSIGKRKPYDYDYGNRQGNQNAGCPFCDVRHLVNIFEKDGDKIWLKNKYPTLQDTDQTILIESSDHQGDISTYTREDNQELMKFALKCFQKMYNSGRYKSVLWYKNFGPKSDGSLTHPHMQIVGLYHKDGYHDIGPDNFKGFEVGKSGSVEMNLSAYPVQGYQEVNIITHDNTNLGTWADLIQKGTQYVRSVLSHGVDSYNLFFYPINDGQGTCCKIIPRFYASPYFVGYKISQVDDSDTLKWEAERLKGFVNGGILH
MGSDKIHHHHHHMDLASKYFNGVNWRYIDHSSGLEPMQSFAFDDTFCESVGKDISDNVVRTWIHQHTVILGIHDSRLPFLKDGIDYLTNEIGYNAIVRNSGGLGVVLDQGVLNISLMFKGQTETTIDEAFTVMYLLISKMFEDENVDIDTMEIEHSYCPGKFDLSIDGKKFAGISQRRVRGGIAVQIYLCVEGSGSERALMMQTFYEHALKGEVTKFKYPEIEPSCMASLETLLNKTITVQDVMFLLLYAIKDLGGVLNMTPITQEEWQRYDTYFDKMIERNKKMIDQMQ
MGSDKIHHHHHHMDLITKQDGTTLHYSTMGQGYPVVLVHTAFDNYAVFNDLAKVLAKSFQVVLIDLRGHGYSDKPRNIEFYDFADDIKFLLDAIYIDEAAFIGHEMGALIAADMSVRNPGYISSITLVNPTSIEGELPEERLFRKYAHKIRNWEDDKQEKFLDKRRYYKARKMNKFLKHVVDTNSISTKEEIQAVKDVFKSEGIADVFKHVQVPTLIVAGEHGERTTTLEAKEVADLIQHCEFNVYQHSSAYPFVEEQAQFTQETTNFIQQHAPK
MGSDKIHHHHHHMDMIVTSKKSSRNANSGCAIHCNDCSMSELCIPFTLNANELEELDNIIERKKPVQKGDKLFQSGDGLKSLYAIRSGTIKSYTITQQGDEQITGFHLAGDVIGFDAIHKQAHQSFAEALETSMICEIPFDTLDSLAGTMPKLRQQIMRLMSHEIISDQEMILLLSKKNAEERLAAFIAKLANRFANRGFSPNEFRLSMTRGDIGNYLGLTVETISRLLGRFQKAQMIAVNGKYITIVDHQALNTLADHTEQ
MGSDKIHHHHHHMDNLVDVFCDVDDFCAVFMPQWKKQCVTDGTRKRQRSSRMDMSEIMTIIILFHTSHHRDFKNYYTGYLARFFKSDFPHLLSYTRFLELMPTAVVPLCSYFSSIRSLPTGIEFVDSTSVKVCHNLRIPRHKTLSGLARRGKGTMGWFYGFKLHLIVNHKGGIVAAKITPANTHDTKPVSGMVVNAMDKLYADKGYISKALASELLEQGVTLVNNVRKNMKKKVLSLWDRAMLSRRFIIETINDQLKNISQIEHSRHRSVHGFMLNMIGGLIAYQLKESKPQLNITDVDFNAISVMA
MGSDKIHHHHHHMDQQKKIQILKDLVNIDSTNGHEEQVANYLQKLLAEHGIESEKVQYDLDRASLVSEIGSSNEKVLAFSGHMDVVDAGDVSKWKFPPFEATEHEGKLYGRGATDMKSGLAAMVIAMIELHEEKQKLNGKIRLLATVGEEIGELGAEQLTQKGYADDLDGLIIGEPSGHRIVYAHKGSINYTVKSTGKNAHSSMPEFGVNAIDNLLLFYNEVEKFVKSIDATNEILGDFIHNVTVIDGGNQVNSIPEKAQLQGNIRSIPEMDNETVKQVLVKIINKLNKQENVNLELIFDYDKQPVFSDKNSDLVHIAKSVASDIVKEEIPLLGISGTTDAAEFTKAKKEFPVIIFGPGNETPHQVNENVSIGNYLEMVDVYKRIATEFLS
MGSDKIHHHHHHMDRSERLIQLISEEGIDAFLIMNIENSARASSVYFSGFTGSFSIILISENTRLLITDSRYTVQAKQETDFEVREVKGGDFIDVLKKTVNDLKIKTIALEEERVSLSLFRRISSAFGDRKFIGIDDEVKQMRMVKDEGEIEKIKQAIEISERAFLETVQQIRAGMTEKEIAALLEYTMRKEGAEGVAFDTIVASGCRSALPHGKASDKVVERGDVIVIDFGATYENYCADITRVVSIGEPSDEVKEVHSIVLEAQERALKIAKAGVTGKLLDSVAREFIREKGYGEFFGHSLGHGIGLEVHEGPAISFRNDSPLPENVVFTVEPGIYLEGKFGIRIEEDVVLKEQGCEILTTLPRSIFVV
MGSDKIHHHHHHMDRWTQLQLFVLTADLGSLSKAAEQLDMSNAAASRTLSSLEERLGARLIERTTRRMWLTDAGREYHRRCTAVIAELAEADAIASEEVVNPRGVLRVTSSVSFAMMHLAPALPEFLKRYPNLTVQITATNQYQNFIESGIDIAIRTKEHEGDSCITIRRLAETRRVLAASPAYLATHGRPQKPEDLAQHNMLVYNLAVDPYLLHLRRGKEERNIAIASALDSNEGQVIVAAGRAGLGIVVQPLYIIHDDIVSGRLVPVLEDWQLPRLTINLAYQSRRYQPAKIRVFTDFLIERVKNLNLEERWMTFAA
MGSDKIHHHHHHMDSLLFGISGLPNRNSNKKFTYKTGIEYLREIGLDAMELPFVRSVNITDKNKNEVLDTKLKNDFYLSAHGSYFINLNADEEEKIEKSLERIIKGAEGLKKVQGKSLIFHPGFYLKDSKEETFETIKENLLRLPDLGVDYRLETTGKGTQFGSLEENVALCKAVDTCKLCIDFSHIHARYNGSLKSYDDFARILNYVGNELGDEGLNDMHIHLSGINYTAKGERNHLPFEESDFNYKDCLKAFRDFDIKGCVICESPVLEHDALLLKNYYETL
MGSDKIHHHHHHMDTLQKTIHNSEYPVVCRSCEARHGGLCSTLTPQQLCDLNRHSSRKKLEAGNELLGQGELVTSYGNILNGVVKLSKMMSDGRQQIVGLQFAPDFLGRPFMAESKMTAEAATDVEICLFPRRIVDRMVTEVPDMERKLHSQSLKELDEARDWMLTLGRKSAQEKVASFLYMIATHIDPENDDKSCFDLPLSRADIADFLGLTIETVSRQMTKLRKEGTIRIENNRHITVPDLDVLSEAAGND
MGSDKIHHHHHHMDVIQLSNDGRCRWLEKQVMNKIFPQAIRSAKIKDIPTQYMIIDWISNDNGKVGVDLKWFKKLGVPYVKTYNDLPEGNDFVVVNTGYDSIVHEEKVLREKGVEILDKPCPFVRKLRKEFEKIDDSYQYVLLCESNHIIIKNFATIFPRDMILIQMGNYKEKLLEQSNGKPMMFISYVTFLKKHSIQVFDFINKTFPGKDHKMVDTQCMWAAGRLSPIDEIRNMSEDILKEVRYALLIGSPGSTNKSLMSLHETIIDKGLEVINIGSLRDFLDFRRKHKKEKVLLVKSPIPNQAEKPILAFLRHGYLYAYYTLWRER
MGSDKIHHHHHHMDVSITQTSADKIKAGKSGLLLISDNYDAFAARVLAARGAARTLDLMYYLWHDDHTGRLLLQEVVRAAQRGVRVRMLLDDVNPRKSDAAYLALSNHPNIELKLFNPSGIRARGLMRGAEVLLRLFALTRRMHNKAWIADDNIAIVGGRNVGDAYFDAAETNFRDLDMLLLGPAVQQTAQIFQTFWVCQDAKPIAELGAAAPGSHAPYFEGREEKTESTLLSGIRDKGSIAEFISASSNVHWVERVRVISDPPEKVRGWRPRSWLMKELLPIIQSARKRVEIVSPYFIPGKKGSKILGDLVDDGVQVAVLTNSLAATDVAAVHGAYANYRKRLLRMGVQLFELQPFSRQPKISVFGSKGASLHTKAFSVDNRIGFVGSFNFDPRSVSLNSEMGVLFEDENLVAELRHRFKSEIAPEASYRLELKNEVLRWHGSDEGRLQTYTREPEAAWFRRILAALVRHLPIESQL
